Patent US20240409653A1 (Genmab, published 2024)

Target: Human PD-L1 (human, UniProt Q9NZQ7 19-290)
Test: cell-based or functional assay

Sequence of Human PD-L1 (Q9NZQ7 19-290): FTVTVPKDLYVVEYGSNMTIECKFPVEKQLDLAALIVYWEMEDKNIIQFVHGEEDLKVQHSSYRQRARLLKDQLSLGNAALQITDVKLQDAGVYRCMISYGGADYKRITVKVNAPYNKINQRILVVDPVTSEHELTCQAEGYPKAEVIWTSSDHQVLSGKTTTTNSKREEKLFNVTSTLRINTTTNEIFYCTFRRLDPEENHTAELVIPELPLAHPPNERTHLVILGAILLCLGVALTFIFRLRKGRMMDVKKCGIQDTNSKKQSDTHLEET

B1: GEN1046 (bispecific antibody, human IgG1, kappa, lambda)
heavy 1: EVQLVESGGGLVQPGRSLRLSCTASGFSLNDYWMSWVRQAPGKGLEWVGYIDVGGSLYYAASVKGRFTISRDDSKSIAYLQMNSLKTEDTAVYYCARGGLTYGFDLWGQGTLVTVSSASTKGPSVFPLAPSSKSTSGGTAALGCLVKDYFPEPVTVSWNSGALTSGVHTFPAVLQSSGLYSLSSVVTVPSSSLGTQTYICNVNHKPSNTKVDKRVEPKSCDKTHTCPPCPAPEFEGGPSVFLFPPKPKDTLMISRTPEVTCVVVAVSHEDPEVKFNWYVDGVEVHNAKTKPREEQYNSTYRVVSVLTVLHQDWLNGKEYKCKVSNKALPAPIEKTISKAKGQPREPQVYTLPPSREEMTKNQVSLTCLVKGFYPSDIAVEWESNGQPENNYKTTPPVLDSDGSFFLYSRLTVDKSRWQQGNVFSCSVMHEALHNHYTQKSLSLSPG
light 1: DIVMTQSPSSLSASVGDRVTITCQASEDISSYLAWYQQKPGKAPKRLIYGASDLASGVPSRFSASGSGTDYTFTISSLQPEDIATYYCHYYATISGLGVAFGGGTKVEIKRTVAAPSVFIFPPSDEQLKSGTASVVCLLNNFYPREAKVQWKVDNALQSGNSQESVTEQDSKDSTYSLSSTLTLSKADYEKHKVYACEVTHQGLSSPVTKSFNRGEC
heavy 2: EVQLLEPGGGLVQPGGSLRLSCEASGSTFSTYAMSWVRQAPGKGLEWVSGFSGSGGFTFYADSVRGRFTISRDSSKNTLFLQMSSLRAEDTAVYYCAIPARGYNYGSFQHWGQGTLVTVSSASTKGPSVFPLAPSSKSTSGGTAALGCLVKDYFPEPVTVSWNSGALTSGVHTFPAVLQSSGLYSLSSVVTVPSSSLGTQTYICNVNHKPSNTKVDKRVEPKSCDKTHTCPPCPAPEFEGGPSVFLFPPKPKDTLMISRTPEVTCVVVAVSHEDPEVKFNWYVDGVEVHNAKTKPREEQYNSTYRVVSVLTVLHQDWLNGKEYKCKVSNKALPAPIEKTISKAKGQPREPQVYTLPPSREEMTKNQVSLTCLVKGFYPSDIAVEWESNGQPENNYKTTPPVLDSDGSFLLYSKLTVDKSRWQQGNVFSCSVMHEALHNHYTQKSLSLSPG
light 2: SYVLTQPPSVSVAPGQTARITCGGNNIGSKSVHWYQQKPGQAPVLVVYDDNDRPSGLPERFSGSNSGNTATLTISRVEAGDEADYYCQVWDSSSDHVVFGGGTKLTVLGQPKAAPSVTLFPPSSEELQANKATLVCLISDFYPGAVTVAWKADSSPVKAGVETTTPSKQSNNKYAASSYLSLTPEQWKSHRSYSCQVTHEGSTVEKTVAPTECS
B1 was tested, and the “EC50 value [µg/ml], CD8+ T-cell expansion, donor 02” value was 0.00523 µg/mL, the “EC50 value [µg/ml], CD8+ T-cell expansion, donor 28” value was 0.00754 µg/mL and the “EC50 value [µg/ml], CD8+ T-cell expansion, donor 72” value was 0.00506 µg/mL. For the same binder, the “EC50 value [µg/ml], CD8+ T-cell expansion, donor 89” value was 0.00776 µg/mL and the “EC50 value [µg/ml], CD8+ T-cell expansion, mean of donors” value was 0.0064 µg/mL.
